The values below come from US6448071.

pKd: −log10 of the molar value.

Assay [1] addresses pMCMV loaded H-2 L^d (murine) (UniProt P01897).
For assay [2], the target named is QL9 loaded H-2 L^d (murine) (UniProt P01897). The assay can be described thus: flow cytometry, direct saturation of FITC-30.5.7 Fab on peptide-loaded RMA-S L^d cells. On the technique in general: A flow cytometer gives signals particle by particle.
In assay [3] the target is SL9 loaded H-2 L^d (murine) (UniProt P01897). The assay is described as above.
SL9 loaded H-2 L^d (murine), sequence (P01897 25-309): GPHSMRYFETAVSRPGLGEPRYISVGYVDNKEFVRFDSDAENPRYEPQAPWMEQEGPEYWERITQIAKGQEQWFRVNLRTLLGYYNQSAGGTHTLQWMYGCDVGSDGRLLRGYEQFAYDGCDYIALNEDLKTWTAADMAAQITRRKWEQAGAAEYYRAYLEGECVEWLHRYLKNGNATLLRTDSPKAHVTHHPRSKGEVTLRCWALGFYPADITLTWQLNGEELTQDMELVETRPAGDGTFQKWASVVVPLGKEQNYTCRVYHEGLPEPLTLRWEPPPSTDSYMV
For assay [4], the target named is p2Ca loaded H-2 L^d (murine) (UniProt P01897). The assay is described as above.
p2Ca loaded H-2 L^d (murine), sequence (P01897 25-309): as above
Assay [5] deals with H-2 L^d naturally loaded with endogenous peptides on cells (RENCA; MC57G L^d) (murine) (UniProt P01897). The experiment in a line: direct flow cytometry on RENCA cells.
H-2 L^d naturally loaded with endogenous peptides on cells (RENCA; MC57G L^d) (murine), sequence (P01897 25-362): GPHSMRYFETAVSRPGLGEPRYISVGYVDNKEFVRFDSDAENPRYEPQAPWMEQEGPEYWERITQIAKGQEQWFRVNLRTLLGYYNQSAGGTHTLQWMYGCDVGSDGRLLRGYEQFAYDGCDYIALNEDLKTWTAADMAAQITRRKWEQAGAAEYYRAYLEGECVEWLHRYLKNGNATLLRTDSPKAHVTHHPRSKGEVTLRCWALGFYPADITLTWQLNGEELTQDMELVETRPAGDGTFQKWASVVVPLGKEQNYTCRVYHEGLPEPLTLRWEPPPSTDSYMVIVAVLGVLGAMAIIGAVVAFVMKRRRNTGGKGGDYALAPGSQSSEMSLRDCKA
The target of assay [6] is unloaded H-2 L^d on RMA-S L^d cells (murine) (UniProt P01897). The assay can be described thus: direct flow cytometry on RMA-S L^d cells without added peptide.
unloaded H-2 L^d on RMA-S L^d cells (murine), sequence (P01897 25-309): as the sequence (P01897 25-309) above
Assay [7] has the same target. The assay can be described thus: direct flow cytometry on RMA-S L^d cells.
Assay [8] concerns the target SIY loaded H-2 K^b on T2 K^b cells (mouse) (UniProt P01901). The assay can be described thus: direct flow cytometry on peptide-loaded T2 K^b cells.
In assay [9] the target is pVSV loaded H-2 K^b on T2 K^b cells (mouse) (UniProt P01901). Described as above.
pVSV loaded H-2 K^b on T2 K^b cells (mouse), sequence (P01901 22-369): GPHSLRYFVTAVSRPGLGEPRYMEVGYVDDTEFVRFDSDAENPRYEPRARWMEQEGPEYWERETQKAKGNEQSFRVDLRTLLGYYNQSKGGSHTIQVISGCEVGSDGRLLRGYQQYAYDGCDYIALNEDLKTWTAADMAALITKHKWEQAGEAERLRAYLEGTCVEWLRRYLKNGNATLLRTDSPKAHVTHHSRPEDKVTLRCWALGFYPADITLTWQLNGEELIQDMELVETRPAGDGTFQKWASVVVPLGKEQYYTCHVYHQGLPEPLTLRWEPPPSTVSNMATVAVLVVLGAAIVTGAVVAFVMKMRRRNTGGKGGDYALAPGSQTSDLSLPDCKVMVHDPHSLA
Assay [10] concerns the target SIY loaded H-2 K^bm3 on T2 K^bm3 cells (mouse). The experiment in a line: direct flow cytometry on peptide-loaded T2 K^bm3 cells.
Assay [11] concerns the target SL9 loaded H-2 L^d (murine) (UniProt P01897). The assay can be described thus: direct flow cytometry on peptide-loaded RMA-S L^d cells.
For assay [12], the target named is tum^- loaded H-2 L^d (murine) (UniProt P01897). The assay is described as above.
tum^- loaded H-2 L^d (murine), sequence (P01897 25-309): as the sequence (P01897 25-309) above
Assay [13] concerns the target p2Ca loaded H-2 L^d (murine) (UniProt P01897). The assay can be described thus: flow cytometry competition with constant FITC-30.5.7 Fab on peptide-loaded RMA-S L^d cells.

soluble divalent 2C TcR/Ig, sequence (A2KF29 whole entry, looked up, tested part not stated): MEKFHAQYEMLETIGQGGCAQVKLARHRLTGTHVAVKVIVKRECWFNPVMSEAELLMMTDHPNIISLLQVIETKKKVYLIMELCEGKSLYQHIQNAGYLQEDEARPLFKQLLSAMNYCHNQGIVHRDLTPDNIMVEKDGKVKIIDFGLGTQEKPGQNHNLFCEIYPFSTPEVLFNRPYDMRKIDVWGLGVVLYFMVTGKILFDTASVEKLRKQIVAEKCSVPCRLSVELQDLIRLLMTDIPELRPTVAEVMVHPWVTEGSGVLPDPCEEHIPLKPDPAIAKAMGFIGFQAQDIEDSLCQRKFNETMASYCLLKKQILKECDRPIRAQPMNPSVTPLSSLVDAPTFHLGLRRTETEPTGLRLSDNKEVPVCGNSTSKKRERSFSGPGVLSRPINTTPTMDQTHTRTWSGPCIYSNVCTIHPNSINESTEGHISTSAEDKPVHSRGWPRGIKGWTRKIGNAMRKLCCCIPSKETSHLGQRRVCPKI
pMCMV loaded H-2 L^d (murine), sequence (P01897 25-309): as the sequence (P01897 25-309) above
QL9 loaded H-2 L^d (murine), sequence (P01897 25-309): as above
SIY loaded H-2 K^b on T2 K^b cells (mouse), sequence (P01901 22-369): as the sequence (P01901 22-369) above

Take FITC labeled 30.5.7 Fab: the pKd is 8.32 in assay [1], 7.91 in assay [2], 8.19 to 8.32 in [3] and 8.24 in [4].

In turn, mAb 30.5.7 (antibody) showed a fold increase of reactivity on γ-IFN treated cells (5-50 units/ml) over untreated cells in assay [5] of 5 to 6 fold. This substance had a fold increase of mean channel fluorescence, cells at 27° C. against cells at 37° C. in assay [6] of 5 fold.

Turning to “soluble divalent 2C TcR/Ig (from UniProt A2KF29)”, the MCF in assay [7] came out at 10 MCF; in [8], 276 MCF; in [9], 14 MCF; in [10], 36 MCF; in assay [11] it was 100 MCF; in assay [12], 10 MCF. Further, the Kapp in [13] was determined as 108 nM.

The term pKd denotes −log10 of the Kd, conventionally taken in molar units. Low readings indicate a large Kd, high ones a small Kd.
